Drawing on PMC3922039, this text covers stoichiometry N for one substance.

The term stoichiometry N denotes the number of molecules, sites or subunits per partner or assembly.

The assay concerns the target Mboumar-9 transposase (T216A) (Messor bouvieri). In words: SEC; analytical size-exclusion chromatography of DNA-free transposase on Superdex 200 at 4 °C; 5.7 uM in 50 uL of 20 mM PIPES pH 6.8, 500 mM NaCl, 5 mM MgCl2, 1 mM DTT; flow 0.5 mL/min.

Mboumar-9 transposase (T216A) (enzyme) had a stoichiometry N of 2.
